Sequences and labels used below:
B1: CD20 peptide SLFLGILSV (SEQ ID NO: 6) (peptide)
peptide: SLFLGILSV
notes: Synthetic nonamer
B2: CD19 peptide RLLFFLLFL (SEQ ID NO: 1) (peptide)
peptide: RLLFFLLFL
notes: Synthetic nonamer
B3: CD19 peptide LLFLTPMEV (SEQ ID NO: 3) (peptide)
peptide: LLFLTPMEV
notes: Synthetic nonamer
B4: CD20 peptide SLNFIRAHT (SEQ ID NO: 9) (peptide)
peptide: SLNFIRAHT
notes: Synthetic nonamer
B5: CD20 peptide SHFLKMESL (SEQ ID NO: 11) (peptide)
peptide: SHFLKMESL
notes: Synthetic nonamer
B6: CD19 peptide KLMSPKLYV (SEQ ID NO: 4) (peptide)
peptide: KLMSPKLYV
notes: Synthetic nonamer
B7: CD20 peptide FIRAHTPYI (SEQ ID NO: 8) (peptide)
peptide: FIRAHTPYI
notes: Synthetic nonamer
B8: CD19 peptide LLFFLLFLV (SEQ ID NO: 5) (peptide)
peptide: LLFFLLFLV
B9: CD19 peptide TLAYLIFCL (SEQ ID NO: 2) (peptide)
peptide: TLAYLIFCL
notes: Synthetic nonamer
B10: CD20 peptide LKMESLNFI (SEQ ID NO: 10) (peptide)
peptide: LKMESLNFI
notes: Synthetic nonamer
B11: CD20 peptide AISGMILSI (SEQ ID NO: 7) (peptide)
peptide: AISGMILSI
notes: Synthetic nonamer

One assay concerns the target HLA-A2.1 MHC class I molecules on T2 cells (human). Briefly: T2 cells pulsed with peptide, anti-HLA-A2.1 flow cytometry; Brefeldin A treatment: 0 hr. (In general: A flow cytometer gives signals particle by particle.)
Experimental: (§1) T2 cells were washed and resuspended in serum-free AIM-VTM (Gibco-Life Technologies, Rockville, Md.) at a final concentration of 1×10⁶ cells/ml and transferred into a 24-well tissue culture plate. […] After incubation, cells were washed once with PBS containing 3% FCS, and stained with mouse anti-HLA-A2.1 monoclonal antibody for 15 minutes at 4° C. After washing, the cells were incubated with goat anti-mouse IgG(F(ab′)2)-FITC for 15 minutes at 4° C. The cells were washed once, and fluorescence was measured on a FACSort™ flow cytometer (Becton Dickson, San Jose, Calif.). The fluorescence index was calculated as follows: (mean channel fluorescence of sample−mean channel fluorescence of unstained control cells)/mean channel fluorescence of unstained control cells.
For B1, the “binding score (HLA-A2.1 fluorescence on T2 cells)” value (“binding score” below) worked out at 672.

As to B2, the “binding score” value amounted to 167.

As for B3, the “binding score” value came to 770.

Take B4: the “binding score” value was determined as 212.

On to B5, for which the “binding score” value is 216.

Regarding B6, the “binding score” value was 683.

With B7, the “binding score” value stood at 232.

For B8, the “binding score” value was determined as 200.

On to B9, for which the “binding score” value turned out to be 530.

With B10, the “binding score” value amounted to 245.

As for B11, the “binding score” value came to 220.

A further assay has the same target. Briefly: T2 cells pulsed with peptide, anti-HLA-A2.1 flow cytometry; Brefeldin A treatment: 2 hr.
Experimental: as §1
Turning to B1, the “binding score” value came out at 703.

As to B2, the “binding score” value was 202.

For the molecule B3, the “binding score” value worked out at 924.

For B4, the “binding score” value was 200.

Regarding B5, the “binding score” value worked out at 218.

B7: the “binding score” value worked out at 215.

On to B8, for which the “binding score” value was determined as 202.

On to B9, for which the “binding score” value is 608.

As for B10, the “binding score” value was determined as 291.

B11: the “binding score” value worked out at 256.

The target is the same in another assay. Briefly: T2 cells pulsed with peptide, anti-HLA-A2.1 flow cytometry; Brefeldin A treatment: 4 hr.
Experimental: as §1
For the molecule B1, the “binding score” value was determined as 762.

Consider B2, for which the “binding score” value was 174.

Turning to B3, the “binding score” value was 880.

Regarding B4, the “binding score” value was determined as 180.

Regarding B5, the “binding score” value worked out at 199.

As for B6, the “binding score” value came out at 796.

For the molecule B7, the “binding score” value worked out at 192.

Take B8: the “binding score” value was found to be 163.

Consider B9, for which the “binding score” value was 513.

Regarding B10, the “binding score” value stood at 227.

Regarding B11, the “binding score” value was 165.

For another assay the target is unchanged. Briefly: T2 cells pulsed with peptide, anti-HLA-A2.1 flow cytometry; Brefeldin A treatment: 6 hr.
Experimental: as §1
Turning to B1, the “binding score” value was 770.

With B2, the “binding score” value is 152.

Take B3: the “binding score” value was found to be 573.

Turning to B4, the “binding score” value is 128.

As to B5, the “binding score” value is 127.

Take B6: the “binding score” value was determined as 642.

On to B7, for which the “binding score” value was 154.

On to B8, for which the “binding score” value came out at 143.

Turning to B9, the “binding score” value is 387.

In the case of B10, the “binding score” value stood at 190.

For B11, the “binding score” value turned out to be 144.

The next assay shares this target. Briefly: T2 cells pulsed with peptide, anti-HLA-A2.1 flow cytometry; Brefeldin A treatment: None.
Experimental: as §1
Take B1: the “binding score” value was 637.

For the molecule B3, the “binding score” value was determined as 556.

B4: the “binding score” value stood at 172.

Take B5: the “binding score” value is 172.

As to B7, the “binding score” value was 167.

Regarding B8, the “binding score” value was 164.

On to B9, for which the “binding score” value is 363.

For B10, the “binding score” value was 215.

Consider B11, for which the “binding score” value stood at 162.

For another assay the target is unchanged. Briefly: T2 cells pulsed with peptide, anti-HLA-A2.1 flow cytometry; Brefeldin A treatment: Overnight.
Experimental: as §1
B1: the “binding score” value came to 410.

Turning to B2, the “binding score” value worked out at 248.

B3: the “binding score” value came to 453.

For B4, the “binding score” value came to 195.

Turning to B5, the “binding score” value was 277.

For B6, the “binding score” value came to 540.

With B7, the “binding score” value turned out to be 250.

Consider B8, for which the “binding score” value was 200.

For the molecule B9, the “binding score” value worked out at 312.

With B10, the “binding score” value came to 225.

For the molecule B11, the “binding score” value stood at 232.
